In patent CN112010972A (REYOUNG SUZHOU BIOPHARMACEUTICAL CO LTD, dated 2020):

T1: 带有His标签的人LAG-3蛋白的胞外结构域(Acro) (human, UniProt P18627 23-450)
T1 construct: extracellular domain; Bought protein (Acro); also called Human-LAG-3-His; 抗原; not shown: His tag
T1 sequence (looked up): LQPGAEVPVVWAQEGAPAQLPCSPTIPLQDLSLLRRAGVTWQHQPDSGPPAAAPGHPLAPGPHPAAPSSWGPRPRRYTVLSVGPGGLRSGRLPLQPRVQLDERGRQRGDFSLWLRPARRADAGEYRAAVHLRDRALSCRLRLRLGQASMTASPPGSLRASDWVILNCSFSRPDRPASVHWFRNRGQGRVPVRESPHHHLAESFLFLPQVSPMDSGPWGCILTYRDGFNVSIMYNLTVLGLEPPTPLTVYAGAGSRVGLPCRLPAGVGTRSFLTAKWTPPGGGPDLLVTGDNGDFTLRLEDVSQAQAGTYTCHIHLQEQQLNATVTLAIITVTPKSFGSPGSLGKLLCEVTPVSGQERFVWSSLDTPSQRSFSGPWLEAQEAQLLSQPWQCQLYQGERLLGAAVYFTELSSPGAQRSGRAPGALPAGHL


Biological target: T1, 带有His标签的人LAG-3蛋白的胞外结构域(Acro)
Experiment: SPR (Biacore), supernatant captured on Protein A chip, 100 nM human LAG-3 as analyte, 1:1 fit

| Kd [nM] | Binder |
| --- | --- |
| ~0.1 | 抗LAG-3人鼠嵌合抗体 17E3VL-17E3VH (antibody, V domains shown) VH: EVMLVESGGGLVKPGGSLKLSCAASGFTFITYAMSWVRQTPEKRLEWVASINNGGTHYPDTMKGRFTISRDNARNILYLQMSSLRSEDTAMYYCARSYNGIPHYFDYWGQGTTLTVSS VL: DILMTQTPASLAVSLGQRATISCRTSESIDNYGVSFMNWFQQKPGQPPRLLIYAASNQGSGVPARFSGSGSGADFSLNIHPMEEDDSALYFCQQSKEVPFTFGSGTKLEIKR |
| ~0.1 | 抗LAG-3人鼠嵌合抗体 29VL-17E3VH (antibody, V domains shown) VH: EVMLVESGGGLVKPGGSLKLSCAASGFTFITYAMSWVRQTPEKRLEWVASINNGGTHYPDTMKGRFTISRDNARNILYLQMSSLRSEDTAMYYCARSYNGIPHYFDYWGQGTTLTVSS VL: not shown |
| ~0.1 | 抗LAG-3人鼠嵌合抗体 78H3VL-78H3VH (antibody, V domains shown) VH: EVQLQQSGPVLAKPGASVKMSCKTSGYTLTDYYMNWVKQSHGKSLEWIGIINPYNGDTSYNQRFKGKATLTVDKSSSTAYMELNSLTSEDSAVYYCARDDGYYVDYFDYWGQGTTLTVSS VL: DIQMTQSPSSLSASLGERVSLTCRASQDIGNSLNWLQQEPDGTIKRLIYATSSLDSGVPKRFSGSRSGSDYSLTISSLESEDFVDYYCLQHASSPPTFGAGTKLELKR |
